The text below walks through data of patent publication US20250282876A1, “STABLE Fc FRAGMENTS, CONJUGATES, COMPOSITIONS, AND METHODS OF USE” (PURDUE RESEARCH FOUNDATION, priority 2022, published 2025).

Experiment [1] addresses T1, CD32b (Homo sapiens, UniProt P31994).
T1 construct: purchased Beijing Sino Biological Inc
T1 sequence (P31994 43-310): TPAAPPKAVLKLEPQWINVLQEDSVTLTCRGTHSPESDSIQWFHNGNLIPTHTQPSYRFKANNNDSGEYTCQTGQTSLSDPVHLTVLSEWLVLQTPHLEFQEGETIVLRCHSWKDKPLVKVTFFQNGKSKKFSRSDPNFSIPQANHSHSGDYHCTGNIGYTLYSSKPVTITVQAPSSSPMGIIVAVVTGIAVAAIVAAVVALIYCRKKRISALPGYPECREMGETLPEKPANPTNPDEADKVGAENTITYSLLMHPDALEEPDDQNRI
The experiment is described as follows: Bio Layer Interferometry (Octet) binding of monomeric Fc variants to FcγR. To be noted: huFcγR variant CD32b; 1:1 Langmuir fit; * denotes weak binding/inaccurate KD. (In general: In BLI a coated tip is dipped into the sample, and binding shifts an interference pattern.)

In experiment [2] the test system is antibody-dependent cellular phagocytosis (ADCP). The experiment is described as follows: ADCP activity of mFc mutant (Example 1 statement). The experiment is classed as cell-based. The conditions noted are these: compared to WT.
Experiment [3] addresses FcγRIIIa (Homo sapiens, UniProt P08637). The experiment is described as follows: Binding affinity of mFc mutant compared with wild-type (Example 1 statement). The conditions noted are these: comparative with wild-type (WT).
Experiment [4] concerns the target T2, FcγRIIb (Homo sapiens, UniProt P31994).
T2 sequence (P31994 43-310): T1 sequence (P31994 43-310)
The experiment is described as follows: Binding of mFc mutant compared with wild-type (Example 1 statement). The conditions noted are these: as compared to WT.

In experiment [5] the test system is antibody-dependent cell-mediated cytotoxicity (ADCC). The experiment is described as follows: ADCC activity of mFc mutant (Example 1 statement). The experiment is classed as cell-based. To be noted: compared to WT.
Experiment [6] has as its target T3, CD16a (176F) (Homo sapiens, UniProt P08637).
T3 construct: purchased Beijing Sino Biological Inc
The experiment is described as follows: Bio Layer Interferometry (Octet) binding of monomeric Fc variants to FcγR. The conditions noted are these: huFcγR variant CD16a(176F); 1:1 Langmuir fit; * denotes weak binding/inaccurate KD.

For orientation: Kd means the constant that tells how readily two partners part at equilibrium.

Bounds are passed on as bounds.

T3 sequence (P08637 17-254): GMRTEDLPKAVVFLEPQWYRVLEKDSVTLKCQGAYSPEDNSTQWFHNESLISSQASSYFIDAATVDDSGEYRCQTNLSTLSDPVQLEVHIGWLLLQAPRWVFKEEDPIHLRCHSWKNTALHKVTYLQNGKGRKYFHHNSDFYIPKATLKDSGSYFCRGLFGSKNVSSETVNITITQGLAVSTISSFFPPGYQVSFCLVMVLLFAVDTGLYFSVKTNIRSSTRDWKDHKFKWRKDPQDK
FcγRIIIa, sequence (P08637 17-254): as above

Turning to “Mono-Fc DLE: modified Fc region of human IgG1 with DLE mutation (Ser239Asp/Ala330Leu/Ile332Glu)”, the affinity in experiment [1], expressed as Kd, was 1.34 nM. The ADCP activity result in experiment [2] is “enhanced”. Further, the “binding affinity to FcγRIIIa” value in experiment [3] is “increased FcγRIIIa affinity”. The “binding to inhibitory FcγRIIb” value in experiment [4] is recorded as “low binding”. In experiment [5], the ADCC activity entry was “enhanced”.

“Mono-Fc WT: wild-type Fc region of human IgG1 (aa 216-447), expressed as about 26 kDa monomeric form [reference compound]”: the dissociation constant Kd is 3760 nM in experiment [1] and less than 0.001 nM in experiment [6].
